Here are results for 2 molecules from publication PMC8054141, “The molecular basis of the inhibition of CaV1 calcium-dependent inactivation by the distal carboxy tail” (The Journal of Biological Chemistry, 2021).

The target of this assay is T1, Cerulean-ICDI1.4 (human).
T1 construct: CaV1.4 alpha1 subunit, human clone NP005174.2; ICDI domain of the distal carboxy tail; Fluorophore cloned KpnI/NotI and the channel peptide NotI/XbaI in pcDNA3, so Cerulean probably precedes the peptide; also called ICDI domain from CaV1.4; source: HEK293, transiently transfected (PEI), in live cells
Put plainly: FRET or BRET; live-cell FRET two-hybrid (3^3-FRET) in HEK293 cells on an inverted microscope; Venus-tagged peptide as acceptor, Cerulean-tagged peptide as donor; FRET ratio of each cell against free donor concentration; Tyrode's bath with 2 mM CaCl2, pH 7.4; relative Kd calibrated and converted to Ka = 1/Kd. The note with it: partners not purified.

B1: Venus-PreIQ3-IQ-A1.3 (domain or fragment)
chain: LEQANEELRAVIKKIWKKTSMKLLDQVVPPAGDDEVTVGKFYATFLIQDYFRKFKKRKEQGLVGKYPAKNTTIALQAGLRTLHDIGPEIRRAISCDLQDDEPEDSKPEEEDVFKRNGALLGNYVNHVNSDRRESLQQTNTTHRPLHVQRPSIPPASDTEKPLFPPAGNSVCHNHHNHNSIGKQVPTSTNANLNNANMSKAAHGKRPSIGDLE
modifications: Limits approximate: about 30 residues PreIQ3 + IQ + about 150 residues A region. Position of the IQ isoleucine (I[0]) on P27732 was inferred as 1656; the paper's numbering (KPY1626, ALQ1635) implies …
Take B1: the Ka turned out to be 2.14e+07 M⁻¹.

B2: Venus-PreIQ3-IQ-A1.3 F[−2]A (domain or fragment)
chain: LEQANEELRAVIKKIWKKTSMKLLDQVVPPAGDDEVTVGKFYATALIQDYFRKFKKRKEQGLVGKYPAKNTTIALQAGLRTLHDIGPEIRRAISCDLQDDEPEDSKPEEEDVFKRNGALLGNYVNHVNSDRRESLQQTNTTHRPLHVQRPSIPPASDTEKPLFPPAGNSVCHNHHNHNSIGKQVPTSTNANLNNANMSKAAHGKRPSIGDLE
modifications: F[-2]A, two residues before the canonical IQ isoleucine (inferred as 1656 on P27732). Limits approximate, as for m1. Venus tag omitted.
Regarding B2, the Ka stood at 5.8e+06 M⁻¹.
